Test results: the DeepSol protein solubility set

test: soluble on expression in E. coli; label from the status in PepcDB or PDB records

| Sequence | soluble on expression in E. coli |
| --- | --- |
| MKTLFAFFILIFSNIVYAAPKAELWAYWQASNDSNTASVSHQAWQSILDRNLVQVGENALFRYAEVTKEDKTLLNDYLDQLSKLDPREFNRQEQYAYWVNLYNALTVKLILDNYPVASITKLGGLFSFGPWDEKVFTVAGQTLTLNDIEHRILRPIWKDPRTHYAVNCASLGCPNLQSQAFTAQNTERLLSNAAHTFINSSKGATLNNDTLILSSIYDWFAVDFGNKKELLIHLAQYRPELSLYSGKIDYQYDWKLNDTKEKKLEHHHHHH | soluble |
| MLEIKRYKNRVASRKCRAKFKQLLQHYREVAAAKSSENDRLRLLLKQMCPSLDVDSIIPRTPD | soluble |
| MTTLIISDLHLDPLRPVVTELFLRFLREQVSGADALYILGDLFEIWIGDDMPSEVADMVVAALRTHADAGTPLYFMPGNRDFLVGADYAARAGFRILPDPCVVDLYGEPTLLLHGDLLCTDDIAYQAFRAQTRDPEFIAQFLTQTLSARLAFAQQARLASHAHQSGLKQENDSTQFEKITDVVPADVAAMFACYGVNRMIHGHTHRPALHMLQVAECACTRVVLGDWYQQGSVLCVDADGLVLEQLLLP | not soluble |
| MILMRTIDWNEESNSVVLVDQTLLPQEYKVIECKTLSSLCEAIQSLRIRGAPALGAAGGFGIALAAYLSGAKDIESMTKDLKVAAKALKSTRPTAVNLAWGVDRVLNAISDAFDFRGIRDIALQEARDIAEEDIETNKLIGKYGAKLLKDGDTVLTHCNAGRLACVDWGTALGVVRSAIADGKEIKVLACETRPLNQGSRITTWELMQDKIPVTLIADSMAGWAMRQGLVNSVLVGADRITQDVVFNKIGTYTHSILAREHEIPFYVAAPVSTFDFEGWEGSIKIEMRNPDELRFAGCQQLAPEDVPVYNPAFDATPMENVTALITERGVFYPPILLDEVLVLEHHHHHH | not soluble |
| NPDGLSQEQLEHRERSLQTLRDIQRMLFPDEKEFTGAQSGGPQQNP | soluble |
| MGSDKIHHHHHHMTVEYTASDLATYQNEVNEQIAKNKAHLESLTHPGSKVTFPIDQDISATPQNPNLKVFFFDIDNCLYKSSTRIHDLMQQSILRFFQTHLKLSPEDAHVLNNSYYKEYGLAIRGLVMFHKVNALEYNRLVDDSLPLQDILKPDIPLRNMLLRLRQSGKIDKLWLFTNAYKNHAIRCLRLLGIADLFDGLTYCDYSRTDTLVCKPHVKAFEKAMKESGLARYENAYFIDDSGKNIETGIKLGMKTCIHLVENEVNEILGQTPEGAIVISDILELPHVVSDLF | not soluble |
| MGLLIDGVWHDQWYDTKSTGGSFKRQDAKFRNWITHDGSAGPSGTGGFTPDSGRYHLYISHACPWAHRTMIFRTLKGLEDHITISAVHPDMLGEGWTFEPDDNGATGDTLYNSAFARDIYTRADPRFTGRVTVPILWDKQRETIVSNESSEIIRMFNAAFNGLTGNSDDYWPEPLRDAIAPVNERIYDTFNNGVYKAGFATTQQAYDAAIVPLFDTLDWLEERLSHNRYLMGDQLTEADWRLFTTLVRFDPVYHLHFKCNRKRIVDYPNLWGYTRELYQTPGVADTVNFDHIVRHYHYSHETINPNRIIPINPVLDFHRPHGRGLEHHHHHH | soluble |
| MAHHHHHHMPVAPLHPELQRVLKENRRTRAFDPAAWIEMKCAKLNDYMQRCGLKACVTSVSGGIDSAVVLAMCAHAMRAHNSPIQKNVGLCQPIHSSDWALRRGKENIAACGATEVVVDQTALHTELATLVERAAGIEGGAFARGQLRSYMRTPPGFYVAQLLTQEGTPAVVMGTGNKDEDFYLGYFCKAGDGVVDVQIISDLHKSEVLLVAEVLGVPENTRHAAPSADLWEGQTDEDELGFPYDFVELFTEWYLKQRETTKIKFLNSLCDEARNQFERYVAACELVHRRNAHKLQGQVNL | not soluble |
| MGSDKIHHHHHHMKIELENCQKSLTLKDFEEIESKLGYALPERLKEFYLQYNGGSTKQTASINKYQEVEIEDFFPFKYNKDFKNDPRYTAEGETLELRKAGAISDSILIFAMESTDEGRITIDLVNGKIYLYPIVGMQDVIFNFEEPRLVANSIDDFFDNLVVLDGHKAIPAIEEIEEGQTETAGVMPELSDCSASLTKEDIKNFEVELNVKIPAGMKNFYLKFNGGMPSPYCYQPQDEDLDRVEINAFFPIKERTNAFETIEVIAKGIWSRNLMPCNLLPFAMDSGGNYYALNLKNKKIYYYLTDEWDENASREYNFETNTRYIAQSFNYFINHFIEEEE | not soluble |
| MITILGAGKVGMATAVMLMMRGYDDLLLIARTPGKPQGEALDLAHAAAELGVDIRISGSNSYEDMRGSDIVLVTAGIGRKPGMTREQLLEANANTMADLAEKIKAYAKDAIVVITTNPVDAMTYVMYKKTGFPRERVIGFSGILDSARMAYYISQKLGVSFKSVNAIVLGMHGQKMFPVPRLSSVGGVPLEHLMSKEEIEEVVSETVNAGAKITELRGYSSNYGPAAGLVLTVEAIKRDSKRIYPYSLYLQGEYGYNDIVAEVPAVIGKSGIERIIELPLTEDEKRKFDEAVQAVKKLVETLPPQLRE | soluble |
| MKTLLQTTLKLLVASSLVLGMTASTLMAETKSKFQVAWTIYVGWMPWDYAAQSGILDKWAKKYGIEIEMVQVNDYVESINQYTAGKFDGCVMTNMDALTIPAAGGVNSTALIAGDFSNGNDGIILKGKKRLSEIKGQKVNLMELSVSHYLLARGLESVGLSERDVSVVNTSDADIVAAYSTKEVSALVTWNPQLSEVKSMKGANLVFDSSQIPGEIIDLMVLNTQTLKENPNLGKALTGAWFEVLALMKKGDLTALSAMAKASGTDLAGYKKQLESTKMFYEASEAVKFITSAELPETMKKVSEFSFEHGILGEGASSAAFVGMEFPGGKSFGDPKNLKLRFIDTYVKMAAEGKL | not soluble |
| MGSDKIHHHHHHAPKGAEARMIATVDAEQARTLRFLEVMVNQNSGSRNLEGVRRLRDIVVPEFTALGFTSRWIPMERTGRAGHLVLTHKGRQGAKKLLLIGHLDTVFEPDSPFQTYVLNGEKATGPGVGDDKGGIAVILAAVRAMNAAGTLKGASIEVFLTGDEEEAGSPTEVARADLVAAARAADVALDFEGLSRENGRDMGSIARRSSQSWSLTVEAKSGHSSGVWGANAGDGAIYAAAKIVNAFRTELPEPWLTLNVGLIAGGAEAEVAEDNAHVSAQGKTNIIPGEVIARGDLRTLSPEQNRAAMRKMEEIVGRPYPGVTSARIAFSEGYPPMAPTEGNKALLARLNQVNATLGLPEMQPLDPMKRGAGDISFVAEYIDGLVGLGPHSTGDHAPGETVDVPSIWTQAKRAALLMTRLSAEKSAR | not soluble |
| MSASFSNNACYMDVMIEIISLRLRLAIASSDRVPLWPFPSRQYMPTRPGWSRWRHPTVVVEPMRNQNFSYHKCNNKIDSSKHISTLSH | not soluble |
| MGSDKIHHHHHHMTRAELYAVLDRFLAALDARDPTALDWAPGAHHSENNVMLEIGDGVWGTIDRLGDYRLRFADTRTRQVGYFGTVIEPIEESAFTLRLALDEAGRIAECEMLIVRQSDSGIKFENCRYWDKPILHREPEAPVSRQEMVRLSNGYFDTLQRNDGTIHTRFHPDCNRVENGVQTTRNPDFAKIVPVSALGCEEQFRMGNYRYDDDLRARRFPLVDEERGLVLAFGFIDHSGRLREFQLTDGRTVKSPVLRPHSFYISELFKIDHGMIEQIEANFITVPYRMPSPWDLL | not soluble |
| MSLTEQRAVIAIYLRLSRESDDSTSLETQRSFAHRWLLAHGYDPADAVEYIDASVSGAKPLEARKGMAALMAARPTVVVAWKLDRFARSVSDFLRLVAWAEAHGASIATTDNAIDTTTATGRMVATVLAALAEWERNAIASRITDGHATRRSQGRWSSGRPPFGYRIERRDGAAYLAIDDDQAAKIRKAVAALVNGSTVAATARLTGLSEPQWRRLLKSPTLRGQRAHKGELVCEVDGITPVKFAEPILSAAELLKVRERMLALATGQDRAPRRATPMCSGMAFCHRCAGKLNGGTSDKGVPLYRCKAGHVTIYAETLDSRVESEFLTTFGSYAETVIRLEGGNDLSAELLEAKEQAERLAARMATAGPLMLGTLESLAQDLEDTHARLRAAHDPDVREVQVATGRTMAQAWEMYDVPDRSRLLAGMGLRVSLHPRQLADRLTITWGPTPEEAPEAEWDGLALSEAEGHHHHHH | not soluble |
| MEQQNTLNDIKQTIVFNASIQKVWSVVSTAEGIASWFMPNDFVLEVGHEFHVQSPFGPSPCKVLEIDEPNHLSFSWDTDGWVVSFDLKDLGDNKTEFTLIHGGWKHPDEILPKANAKSSIIRDRMSGGWVAIVNEKLKKVVEG | soluble |
| MCRMFLCHGNFGEDAGRLFLALSETAKNDPLLVKAGSTWTSHSDGWGMAMLSDGSIRFEKHSRPVYEDSVPTIISSGTVLAHARKASPGEPLGNAFSHPFYAEDERYIVLLAHNGSLDKHRIANCDPKCYDRNTDSGLFLSYIMTFPGTVKERFERAIFESLKNGVFGKLTNLLVVALDKFTMIEERLYFSHNASRSEYGDLYLVNGRGWTGVFSSSILMSAHFPAYVSKSKVENDTVMDLP | not soluble |
| MASKTIKIMPVGDSCTEGMGGGEMGSYRTELYRLLTQAGLSIDFVGSQRSGPSSLPDKDHEGHSGWTIPQIASNINNWLNTHNPDVVFLWIGGNDLLLNGNLNATGLSNLIDQIFTVKPNVTLFVADYYPWPEAIKQYNAVIPGIVQQKANAGKKVYFVKLSEIQFDRNTDISWDGLHLSEIGYKKIANIWYKYTIDILRALAGETQLEHHHHHH | soluble |
| MGSDKIHHHHHHMRTPVPRVAAIHDLSGFGRTSLTVAMPVLSSMGVQVCPLPTAVLSTHTSGFENFSFVDLTEQMHSILDHWQSLNLKFDAVYSGFLGSPEQVDIVARCIDMFRTPDGLAVVDPVMGDNGEMEPTMTLEMVHRMRWLVTKADIITPNFTEAAFLLDEKYTTEATVSTVKDWLRRLTAMGPSIAIITSVPVHGDERRSAVMAYNRRHDRFWKVDCSYIPAHYPGTGDTFASVVTGALLQGDSLPIAMDRAVQFVTMGIRATFGHNLPSRDGILLERVLDTLRAPVTSSSFELLDNDGEQCACR | not soluble |
| MNNVEKAIEALKKGEIILVYDSDEREGETDMVVASQFITPEHIRIMRKDAGGLICTALHPDICNKLGIPFMVDILEFASQKFKVLRELYPNDIPYDEKSSFSITINHRKTFTGITDNDRAFTIKKLAELVKEGRFNDFGKEFRSPGSVTLLRAAEGLVKNRQGHTEMTVALAELANLVPITTICEMMGDDGNAMSKNETKRYAEKHNLIYLSGEEIINYYLDKYLKD | soluble |
| MGSDKIHHHHHHMVSFVHSSDLHLGKSFGTFPEDVRVRLQQARLESLTTLADIARTNGARHVLLAGDTFDKMTPAPKVIRGALNAMREAADVTWWVLPGNHDHVNATELWRTFTSDAPANVHALLRPEPVMLTDGVALLPAPPTERHPGRDLTDWFDDAATGDALRIGLAHGSIRGFSAEDGGASVLSFNRARDAGLAYLGLGDWHGQLQVSENTWYSGAPEADSFKHAMDPSALLVEVDGARVTVTPHPTSRLIWRASEVDLIGDEADLPLPPQDRARTLLKLTLTGRARPAVRRDLEAAFDHAAPDFLWAEAEFDGLDLVHETSDLDQIDRQGALRAAAEALVREADDQALSPEARATADAALSLLFTYAAEA | not soluble |
| MGHHHHHHSHMIDKATGILLYGLASRLRDTRRLSFLVSYIASKKIHTEPQLSAALEYVRSHPLDPIDTVDFERECGVGVIVTPEQIEEAVEAAINRHRPQLLVERYHFNMGLLMGEARAVLKWADGKMIKNEVDMQVLHLLGPKLEADLE | soluble |
